Drawing on paper PMC5003816, this text covers ratio to parent for one substance.

The test addresses ubiquitin conjugates (MEFs). Kind of test: UBQLN2 IP and western blot quantification (primary MEFs). The note with it: n = 3; read off a plot. (In general: In western blotting, separated proteins are transferred to a membrane and probed.)

For the substance “UBQLN2 (mouse, endogenous, wild type) (from UniProt Q9QZM0) mP520T”, the ratio to parent is 1.4.
